Data published in publication PMC5283830, “Suppression of C9orf72 RNA repeat-induced neurotoxicity by the ALS-associated RNA-binding protein Zfp106”.

Assays:
[1] = molecular target: T1, Zfp106 (Mus musculus, UniProt O88466 1-1888); assay: competition; 30x molar excess vs r(GGGGCC)4 probe; EMSA: 40 mM Tris-Cl pH 8.0, 30 mM KCl, 1 mM MgCl2, 0.01% NP-40, 1 mM DTT, 5% glycerol, 10 ug/ml BSA, 30 min room temperature; pull-down: nuclear extract in 50 mM Tris pH 7.4, 150 mM NaCl, 1 mM EDTA, 0.5% NP-40, 4 h at 4 C; settings: protein: recombinant, tags: N-terminal 3xFLAG-2xSTREP
[2] = molecular target: T1, Zfp106; assay: EMSA; 1 mM Mg2+; competed by 30x unlabeled self; EMSA: 40 mM Tris-Cl pH 8.0, 30 mM KCl, 1 mM MgCl2, 0.01% NP-40, 1 mM DTT, 5% glycerol, 10 ug/ml BSA, 30 min room temperature; pull-down: nuclear extract in 50 mM Tris pH 7.4, 150 mM NaCl, 1 mM EDTA, 0.5% NP-40, 4 h at 4 C; settings: protein: recombinant; tags: N-terminal 3xFLAG-2xSTREP; label: 5' 32P (probe)
[3] = molecular target: T2, MBNL1 (Mus musculus, UniProt G3X9Q0 1-381); assay: EMSA; 1 mM Mg2+; EMSA: 40 mM Tris-Cl pH 8.0, 30 mM KCl, 1 mM MgCl2, 0.01% NP-40, 1 mM DTT, 5% glycerol, 10 ug/ml BSA, 30 min room temperature; pull-down: nuclear extract in 50 mM Tris pH 7.4, 150 mM NaCl, 1 mM EDTA, 0.5% NP-40, 4 h at 4 C; settings: protein: recombinant; tags: N-terminal 3xFLAG-2xSTREP; label: 5' 32P (probe)
T2 sequence: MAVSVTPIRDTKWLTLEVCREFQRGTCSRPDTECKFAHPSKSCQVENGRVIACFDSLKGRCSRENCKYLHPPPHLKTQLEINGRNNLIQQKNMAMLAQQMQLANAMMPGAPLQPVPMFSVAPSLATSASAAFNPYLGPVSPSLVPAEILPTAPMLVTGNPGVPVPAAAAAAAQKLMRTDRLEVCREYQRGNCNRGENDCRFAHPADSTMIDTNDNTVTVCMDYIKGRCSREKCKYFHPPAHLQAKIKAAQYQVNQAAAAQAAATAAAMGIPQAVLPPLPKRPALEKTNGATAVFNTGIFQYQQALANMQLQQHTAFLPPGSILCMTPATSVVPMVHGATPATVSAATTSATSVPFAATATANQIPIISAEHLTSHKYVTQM

[4] = molecular target: T2, MBNL1; assay: EMSA; 1 mM Mg2+; competed by 30x unlabeled self; EMSA: 40 mM Tris-Cl pH 8.0, 30 mM KCl, 1 mM MgCl2, 0.01% NP-40, 1 mM DTT, 5% glycerol, 10 ug/ml BSA, 30 min room temperature; pull-down: nuclear extract in 50 mM Tris pH 7.4, 150 mM NaCl, 1 mM EDTA, 0.5% NP-40, 4 h at 4 C; settings: protein: recombinant; tags: N-terminal 3xFLAG-2xSTREP; label: 5' 32P (probe)

T1 sequence (O88466 whole entry): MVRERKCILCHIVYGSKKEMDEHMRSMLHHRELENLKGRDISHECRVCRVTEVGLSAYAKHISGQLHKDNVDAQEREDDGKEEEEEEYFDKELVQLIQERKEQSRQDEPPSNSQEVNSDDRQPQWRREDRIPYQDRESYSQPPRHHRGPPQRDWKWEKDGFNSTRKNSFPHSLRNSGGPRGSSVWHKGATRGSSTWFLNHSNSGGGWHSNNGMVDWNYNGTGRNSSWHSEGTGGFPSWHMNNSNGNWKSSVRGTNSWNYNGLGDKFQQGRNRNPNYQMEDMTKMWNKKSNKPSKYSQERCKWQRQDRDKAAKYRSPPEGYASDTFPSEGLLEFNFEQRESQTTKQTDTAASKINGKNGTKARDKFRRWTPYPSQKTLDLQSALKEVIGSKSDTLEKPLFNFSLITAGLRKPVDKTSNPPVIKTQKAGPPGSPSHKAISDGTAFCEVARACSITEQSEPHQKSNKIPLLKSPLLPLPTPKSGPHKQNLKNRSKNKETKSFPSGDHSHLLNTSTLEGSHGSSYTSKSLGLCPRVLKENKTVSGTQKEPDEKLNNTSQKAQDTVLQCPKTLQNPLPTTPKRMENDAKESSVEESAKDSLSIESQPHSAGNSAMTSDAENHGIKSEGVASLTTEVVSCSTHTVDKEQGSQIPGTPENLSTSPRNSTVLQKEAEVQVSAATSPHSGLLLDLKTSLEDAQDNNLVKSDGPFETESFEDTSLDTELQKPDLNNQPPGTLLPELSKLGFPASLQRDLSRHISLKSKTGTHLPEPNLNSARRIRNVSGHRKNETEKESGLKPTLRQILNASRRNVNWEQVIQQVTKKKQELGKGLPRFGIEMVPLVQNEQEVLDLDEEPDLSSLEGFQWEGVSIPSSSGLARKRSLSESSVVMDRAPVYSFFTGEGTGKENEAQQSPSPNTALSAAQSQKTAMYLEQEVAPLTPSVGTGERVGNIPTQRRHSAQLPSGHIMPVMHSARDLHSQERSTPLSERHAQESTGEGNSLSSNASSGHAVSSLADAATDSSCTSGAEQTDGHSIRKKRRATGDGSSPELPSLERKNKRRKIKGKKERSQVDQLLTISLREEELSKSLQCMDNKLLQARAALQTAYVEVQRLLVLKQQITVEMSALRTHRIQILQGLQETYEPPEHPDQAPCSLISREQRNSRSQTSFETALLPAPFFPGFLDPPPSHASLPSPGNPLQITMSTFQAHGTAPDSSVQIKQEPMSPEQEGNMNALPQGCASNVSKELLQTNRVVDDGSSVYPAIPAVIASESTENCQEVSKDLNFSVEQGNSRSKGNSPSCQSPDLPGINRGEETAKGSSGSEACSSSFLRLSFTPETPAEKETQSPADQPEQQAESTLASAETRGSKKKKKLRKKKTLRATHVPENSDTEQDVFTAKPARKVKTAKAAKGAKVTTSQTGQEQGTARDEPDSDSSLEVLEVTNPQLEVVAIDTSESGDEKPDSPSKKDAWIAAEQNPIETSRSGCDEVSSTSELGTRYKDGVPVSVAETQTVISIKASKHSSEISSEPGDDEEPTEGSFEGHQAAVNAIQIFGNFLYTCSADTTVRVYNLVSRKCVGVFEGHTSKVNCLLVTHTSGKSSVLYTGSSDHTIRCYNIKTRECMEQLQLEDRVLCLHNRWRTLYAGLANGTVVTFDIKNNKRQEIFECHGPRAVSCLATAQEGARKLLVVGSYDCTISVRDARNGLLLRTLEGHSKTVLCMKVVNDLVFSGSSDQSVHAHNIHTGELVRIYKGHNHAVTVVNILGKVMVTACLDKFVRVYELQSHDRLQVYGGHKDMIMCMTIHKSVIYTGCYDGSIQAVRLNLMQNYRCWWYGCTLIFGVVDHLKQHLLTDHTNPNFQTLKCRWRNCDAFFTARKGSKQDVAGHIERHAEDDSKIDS

GAGGCCGGGACCGAGACCGAGGCC (ssRNA) [mutated r(GGGGCC)4 (mut)]
binding result [1]: no binding

GGGGCCGGGGCCGGGGCCGGGGCC (ssRNA) [r(GGGGCC)4]
binding result [2]: binds
binding result [3]: no binding

CUGCUGCUGCUGCUGCUGCUGCUG (ssRNA) [r(CUG)8]
binding result ([1]; label: 5' 32P (probe)): no binding
binding result [4]: binds

AAAACCAAAACCAAAACCAAAACC (ssRNA) [r(AAAACC)4]
binding result [1]: no binding
